Measurements published in US20210253666A1 (TCR2 THERAPEUTICS, published 2021).
Changes are numbered by the printed parent chain.

T1: hMUC16 peptide biotinylated either at C- or N-terminus (bio-hMUC16) (human, biotin at C- or N-terminus)
T1 construct: Captured on streptavidin-coated plates for panning and ELISA screening; also called human MUC16 peptide; MUC16 immunization peptide
T1 peptide: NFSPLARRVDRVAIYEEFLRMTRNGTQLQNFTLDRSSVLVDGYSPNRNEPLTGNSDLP

B1: Single domain anti-MUC16 R3MU119 (VHH)
VHH: QVQLQESGGGLVQPGDSMRLSCAAEGDSLDGYVVGWFRQAPGKERQGVSSISGDGSMRYVADSVKGRFTISRDNAKNTVYLQMIDLKPEDTGVYYCAADPPTWDYWGQGTQVTVSS
notes: Tested as soluble nanobody in crude periplasmic extract; not shown: C-terminal HA tag and His6 tag of the pMECS GG vector
B2: Single domain anti-MUC16 R3MU63 (VHH)
VHH: QVQLQESGGGLVQAGDSLRLSCAASGRTVSSLFMGWFRRAPGKERELVAAISRYSLYTYYADSVKGRFTISADNAKNAVYLQMNSLKPEDTAVYYCASKLEYTSNDYDSWGQGTQVTVSS
notes: as for B1
B3: Single domain anti-MUC16 R3MU29 (VHH)
VHH: B2 VHH with T28A
notes: as for B1
B4: Single domain anti-MUC16 R3MU147 (VHH)
VHH: B2 VHH with D16E
notes: as for B1
B5: Single domain anti-MUC16 R3MU150 (VHH)
VHH: B2 VHH with A14P, D16G
notes: as for B1
B6: single domain anti-MUC16 binder R3MU4 (VHH)
VHH: B2 VHH with D16G, R39Q
notes: as for B1

Target: T1, hMUC16 peptide biotinylated either at …
Test: ELISA, crude periplasmic extracts on biotinylated hMUC16 peptide captured on streptavidin-coated wells
Experimental: The Core 93GG library was panned on hMUC16 peptide […] (SEQ ID NO:92) biotinylated either at C- or N-terminus (bio-hMUC16) for 4 rounds. The bio-hMUC16 peptide was allowed to interact with streptavidin coated plates after which phages from the library were added to the plate. The enrichment for antigen-specific phages was assessed after each round of panning by comparing the number of phagemid particles eluted from antigen-coated wells with the number of phagemid particles eluted from negative control wells (coated with streptavidin and blocked but containing no peptide). […] No enrichment was observed after the 1st, 3rd and 4th round. In total, 380 colonies (190 from round 3, 190 from round 4) were randomly selected and analyzed by ELISA for the presence of antigen-specific nanobodies in their periplasmic extracts (ELISA using crude periplasmic extracts including soluble nanobodies). The peptides used for ELISA screening were the same as the ones used for panning, using blocked streptavidin-coated wells without peptide as negative control. Out of these 380 colonies, 34 colonies scored positive in this assay. Based on sequence data of the positive colonies, 6 different full length nanobodies were distinguished, belonging to 2 different CDR3 groups (B-cell lineages) (see Excel file). […] Nanobodies belonging to the same CDR3 group recognize the same epitope but their other characteristics (e.g. affinity, potency, stability, expression yield, etc.) can be different. Clones from these pannings bear the following code in their name: MU.

binding result | Binder
binds | B1
binds | B2
binds | B3
binds | B4
binds | B5
binds | B6
